Measurements taken from patent publication US20180155451A1 (published 2018).

T1: FcγRIIa H (FcγRIIa, type H allotype, His at position 131), extracellular domain with C-terminal His tag (human, UniProt P12318 34-217)
T1 construct: extracellular domain; Soluble receptor expressed in FreeStyle293 cells; analyte in Biacore; also called FcgRIIa H; 2aH; not shown: C-terminal His tag
T1 sequence (looked up): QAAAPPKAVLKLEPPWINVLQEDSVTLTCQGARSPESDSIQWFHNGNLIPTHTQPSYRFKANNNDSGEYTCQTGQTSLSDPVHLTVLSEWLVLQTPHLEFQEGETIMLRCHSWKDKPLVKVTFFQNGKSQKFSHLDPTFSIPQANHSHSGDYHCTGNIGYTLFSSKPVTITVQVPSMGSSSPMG

T2: FcγRIIb, extracellular domain with C-terminal His tag (human, UniProt P31994 43-217)
T2 construct: extracellular domain; Soluble receptor expressed in FreeStyle293 cells; analyte in Biacore; also called FcgRIIb; 2b; not shown: C-terminal His tag
T2 sequence (looked up): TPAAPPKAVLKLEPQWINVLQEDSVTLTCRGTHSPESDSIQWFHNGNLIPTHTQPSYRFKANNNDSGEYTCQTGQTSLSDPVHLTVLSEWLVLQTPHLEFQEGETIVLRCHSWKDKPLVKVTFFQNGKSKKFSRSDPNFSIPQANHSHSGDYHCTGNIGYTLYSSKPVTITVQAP

T3: FcγRIIb (human, UniProt P31994 43-217)
T3 construct: extracellular domain; also called FcgRIIb; 2b
T3 sequence (looked up): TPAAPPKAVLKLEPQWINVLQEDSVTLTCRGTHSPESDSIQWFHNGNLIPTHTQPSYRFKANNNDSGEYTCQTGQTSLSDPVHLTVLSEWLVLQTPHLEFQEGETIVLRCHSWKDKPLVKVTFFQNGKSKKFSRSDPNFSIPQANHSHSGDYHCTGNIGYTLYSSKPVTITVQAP


Key:
[1] = target: T1, FcγRIIa H (FcγRIIa, type H allotype, …); assay: SPR (Biacore), captured antibody, FcγR as analyte
[2] = target: T2, FcγRIIb, extracellular domain with …; assay: SPR (Biacore), captured antibody, FcγR as analyte
[3] = target: T1, FcγRIIa H (FcγRIIa, type H allotype, …); assay: ratio of He/Con_2aH to He/Con_2b (FcγRIIa H over FcγRIIb), SPR
[4] = target: T4, FcγRIIIa extracellular domain with C-terminal His tag (human, UniProt P08637 17-208); assay: SPR, relative to GpH7-A5/GpH7-B3/GpL16-k0
T4 construct: extracellular domain; also called FcgRIIIa; 3a
T4 sequence (P08637 17-208): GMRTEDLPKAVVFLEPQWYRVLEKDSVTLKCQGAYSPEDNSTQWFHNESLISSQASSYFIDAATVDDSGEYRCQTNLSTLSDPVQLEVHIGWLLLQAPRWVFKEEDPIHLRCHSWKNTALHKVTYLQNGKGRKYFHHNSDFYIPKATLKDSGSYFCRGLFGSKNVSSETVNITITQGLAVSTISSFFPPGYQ

[5] = target: T3, FcγRIIb; assay: SPR (Biacore), antibody captured, FcγR as analyte; relative binding
Procedure: The heterodimerized antibodies He Abs in which one of the H chains was introduced with an alteration were assayed for their binding activities to each activating FcγR and inhibitory FcγR according to the method described in Example 4. […] The activating FcγRs in FIGS. 26, 27, 28, and 29 are FcγRIa, FcγRIIa (R), FcγRIIa (H), and FcγRIIIa, respectively.
Analysis of interaction between objective antibody and the FcγR was carried out using Biacore T100 (GE Healthcare). HBS-EP+ (GE Healthcare) was used as the running buffer, and the measurement temperature was set to 25° C. Chips produced by immobilizing the antigen peptide by the amine coupling method to a Series S Sencor Chip CM5 (GE Healthcare), or alternatively, chips produced by allowing preliminarily biotinylated antigen peptides to interact with and immobilize onto a Series S Sensor Chip SA (certified) (GE Healthcare) were used. Antibodies of interest were captured onto an antigen peptide-immobilized chip, and allowed to interact to each FcγR diluted with running buffer. To regenerate and repeatedly use the chip, the antibodies captured on the chip were washed off by reacting 10 mM glycine-HCl, pH 1.5.

Binder | He/Con_2aH [1] | He/Con_2b [2] | He_2aH/2b (IIaH/IIb) [3] | He/Con_3a [4] | He/Con_2b (IIb binding) [5]
GpH7-A5/GpH7-B3 variant D270_03V/GpL16-k0 (antibody, human IgG1, kappa, Heterodimerized IgG1; mutation only in the GpH7-B3 chain; also called He Ab) heavy 1: not shown heavy 2: not shown light: DIVMTQSPLSLPVTPGEPASISCQASESLVHSNRNTYLHWYLQKPGQSPQLLIYKVSNRFSGVPDRFSGSGSGTDFTLKISRVEAEDVGVYYCSQNTHVPPTFGQGTKVEIERTVAAPSVFIFPPSDEQLKSGTASVVCLLNNFYPREAKVQWKVDNALQSGNSQESVTEQDSKDSTYSLSSTLTLSKADYEKHKVYACEVTHQGLSSPVTKSFNRGEC | 61.8 relative, GpH7-A5/GpH7-B3/GpL16-k0 = 100 | 39.5 relative, GpH7-A5/GpH7-B3/GpL16-k0 = 100 | 1.56 | – | –
GpH7-A5/GpH7-B3 variant D270_13S/GpL16-k0 (antibody, human IgG1, kappa, Heterodimerized IgG1; mutation only in the GpH7-B3 chain; also called He Ab) heavy 1: not shown heavy 2: not shown light: DIVMTQSPLSLPVTPGEPASISCQASESLVHSNRNTYLHWYLQKPGQSPQLLIYKVSNRFSGVPDRFSGSGSGTDFTLKISRVEAEDVGVYYCSQNTHVPPTFGQGTKVEIERTVAAPSVFIFPPSDEQLKSGTASVVCLLNNFYPREAKVQWKVDNALQSGNSQESVTEQDSKDSTYSLSSTLTLSKADYEKHKVYACEVTHQGLSSPVTKSFNRGEC | 71.2 relative, GpH7-A5/GpH7-B3/GpL16-k0 = 100 | 44.2 relative, GpH7-A5/GpH7-B3/GpL16-k0 = 100 | 1.61 | – | –
GpH7-A5/GpH7-B3 variant D270_11K/GpL16-k0 (antibody, human IgG1, kappa, Heterodimerized IgG1; mutation only in the GpH7-B3 chain; also called He Ab) heavy 1: not shown heavy 2: not shown light: DIVMTQSPLSLPVTPGEPASISCQASESLVHSNRNTYLHWYLQKPGQSPQLLIYKVSNRFSGVPDRFSGSGSGTDFTLKISRVEAEDVGVYYCSQNTHVPPTFGQGTKVEIERTVAAPSVFIFPPSDEQLKSGTASVVCLLNNFYPREAKVQWKVDNALQSGNSQESVTEQDSKDSTYSLSSTLTLSKADYEKHKVYACEVTHQGLSSPVTKSFNRGEC | 44 relative, GpH7-A5/GpH7-B3/GpL16-k0 = 100 | 20.3 relative, GpH7-A5/GpH7-B3/GpL16-k0 = 100 | 2.17 | – | –
GpH7-A5/GpH7-B3 variant T335_10E/GpL16-k0 (antibody, human IgG1, kappa, heterodimerized IgG1, mutation in one H chain only; also called He Ab) heavy 1: not shown heavy 2: not shown light: DIVMTQSPLSLPVTPGEPASISCQASESLVHSNRNTYLHWYLQKPGQSPQLLIYKVSNRFSGVPDRFSGSGSGTDFTLKISRVEAEDVGVYYCSQNTHVPPTFGQGTKVEIERTVAAPSVFIFPPSDEQLKSGTASVVCLLNNFYPREAKVQWKVDNALQSGNSQESVTEQDSKDSTYSLSSTLTLSKADYEKHKVYACEVTHQGLSSPVTKSFNRGEC | – | – | – | 107 % of control (=100) | –
GpH7-A5/GpH7-B3 variant V266_12R/GpL16-k0 (antibody, human IgG1, kappa, heterodimerized antibody, mutation in the GpH7-B3 chain only; also called He Ab) heavy 1: not shown heavy 2: not shown light: DIVMTQSPLSLPVTPGEPASISCQASESLVHSNRNTYLHWYLQKPGQSPQLLIYKVSNRFSGVPDRFSGSGSGTDFTLKISRVEAEDVGVYYCSQNTHVPPTFGQGTKVEIERTVAAPSVFIFPPSDEQLKSGTASVVCLLNNFYPREAKVQWKVDNALQSGNSQESVTEQDSKDSTYSLSSTLTLSKADYEKHKVYACEVTHQGLSSPVTKSFNRGEC | – | – | – | – | -1.1 % of GpH7-A5/GpH7-B3/GpL16-k0 (=100)

Second part, the binder after the results:

He/Con_2aH [1] | He/Con_2b [2] | He_2aH/2b (IIaH/IIb) [3] | He/Con_3a [4] | He/Con_2b (IIb binding) [5] | Binder
74.4 relative, GpH7-A5/GpH7-B3/GpL16-k0 = 100 | 48.2 relative, GpH7-A5/GpH7-B3/GpL16-k0 = 100 | 1.54 | – | – | GpH7-A5/GpH7-B3 variant D270_06M/GpL16-k0 (antibody, human IgG1, kappa, Heterodimerized IgG1; mutation only in the GpH7-B3 chain; also called He Ab) heavy 1: not shown heavy 2: not shown light: DIVMTQSPLSLPVTPGEPASISCQASESLVHSNRNTYLHWYLQKPGQSPQLLIYKVSNRFSGVPDRFSGSGSGTDFTLKISRVEAEDVGVYYCSQNTHVPPTFGQGTKVEIERTVAAPSVFIFPPSDEQLKSGTASVVCLLNNFYPREAKVQWKVDNALQSGNSQESVTEQDSKDSTYSLSSTLTLSKADYEKHKVYACEVTHQGLSSPVTKSFNRGEC
39.5 relative, GpH7-A5/GpH7-B3/GpL16-k0 = 100 | 18.3 relative, GpH7-A5/GpH7-B3/GpL16-k0 = 100 | 2.16 | – | – | GpH7-A5/GpH7-B3 variant D270_12R/GpL16-k0 (antibody, human IgG1, kappa, Heterodimerized IgG1; mutation only in the GpH7-B3 chain; also called He Ab) heavy 1: not shown heavy 2: not shown light: DIVMTQSPLSLPVTPGEPASISCQASESLVHSNRNTYLHWYLQKPGQSPQLLIYKVSNRFSGVPDRFSGSGSGTDFTLKISRVEAEDVGVYYCSQNTHVPPTFGQGTKVEIERTVAAPSVFIFPPSDEQLKSGTASVVCLLNNFYPREAKVQWKVDNALQSGNSQESVTEQDSKDSTYSLSSTLTLSKADYEKHKVYACEVTHQGLSSPVTKSFNRGEC
76.4 relative, GpH7-A5/GpH7-B3/GpL16-k0 = 100 | 48.3 relative, GpH7-A5/GpH7-B3/GpL16-k0 = 100 | 1.58 | – | – | GpH7-A5/GpH7-B3 variant D270_02A/GpL16-k0 (antibody, human IgG1, kappa, Heterodimerized IgG1; mutation only in the GpH7-B3 chain; also called He Ab) heavy 1: not shown heavy 2: not shown light: DIVMTQSPLSLPVTPGEPASISCQASESLVHSNRNTYLHWYLQKPGQSPQLLIYKVSNRFSGVPDRFSGSGSGTDFTLKISRVEAEDVGVYYCSQNTHVPPTFGQGTKVEIERTVAAPSVFIFPPSDEQLKSGTASVVCLLNNFYPREAKVQWKVDNALQSGNSQESVTEQDSKDSTYSLSSTLTLSKADYEKHKVYACEVTHQGLSSPVTKSFNRGEC
